Experiment [1] deals with T1, Myeloma human IgG2 (EMD Millipore) (human).
T1 construct: Bought myeloma protein
Kind of experiment: latex agglutination inhibition; 3000 mg/dL myeloma protein as free sample against IgG4-sensitized latex, read on the IgG4 calibration curve. The method, then:
(§1) In a case where the MaI4-08-produced antibody or the MaI4-09-produced antibody was used as an anti-human IgG4 mouse monoclonal antibody in the first reagent, specificity to human IgG4 was evaluated. As a sample, Myeloma human IgG4 solution (EMD Millipore) adjusted to 3000 mg/dL was used. In addition, as control samples, Myeloma human IgG1 solution (EMD Millipore), Myeloma human IgG2 solution (EMD Millipore), and Myeloma human IgG3 solution (Sigma-Aldrich Co. LLC) prepared similarly to the above were used. A saline solution was used as a blank sample. For the measurement of human IgG4 concentrations, 120 μL of the first reagent and 120 μL of the second reagent were reacted with 3 μL of a sample using Hitachi type 7180 automatic analyzer, and change amount of absorbance in the range of photometric points of 18 to 28 (corresponding to 1 minute to 4 minutes after addition of R2) was measured at a main wavelength of 570 nm and a complementary wavelength of 800 nm by a two-point end method (n=2). A calibration curve was created from the results of Table 8 and the human IgG4 concentration in a sample was calculated therefrom.

Experiment [2] addresses T2, Myeloma human IgG3 (Sigma-Aldrich Co. LLC) (human).
T2 construct: Bought myeloma protein
The description is as above. The method, then: as §1

Experiment [3] concerns the target T3, human IgG4 purified from human serum (human).
T3 construct: also called IgG4 antigen; human IgG4-sensitized latex
The experiment in a line: SPR (Biacore), IgG4 immobilized on chip by amino coupling, antibody as analyte. The method, then: MaI4-08 and MaI4-09-produced antibodies, and, as a control, MaI4-05-produced antibody and 1 mg/mL of HP6025 were adjusted to 1 mg/mL. In addition, 1 mg/mL of IgG4 was prepared from the one purified from human serum. According to the protocol of Sumika Chemical Analysis Service, Ltd., IgG4 was immobilized onto a chip by an amino coupling method, and a sensorgram was obtained by a Biacore model. The obtained binding rate constant (kₐ), dissociation rate constant (kd), and dissociation constant (KD) were as shown in Table 11.
(Surface plasmon resonance follows binding to a sensor surface in real time, without labels.)

Results on one molecule are retold here after patent US20210140973A1 (NITTO BOSEKI, published 2021).

T3 sequence (constant, as listed by the source limits assumed): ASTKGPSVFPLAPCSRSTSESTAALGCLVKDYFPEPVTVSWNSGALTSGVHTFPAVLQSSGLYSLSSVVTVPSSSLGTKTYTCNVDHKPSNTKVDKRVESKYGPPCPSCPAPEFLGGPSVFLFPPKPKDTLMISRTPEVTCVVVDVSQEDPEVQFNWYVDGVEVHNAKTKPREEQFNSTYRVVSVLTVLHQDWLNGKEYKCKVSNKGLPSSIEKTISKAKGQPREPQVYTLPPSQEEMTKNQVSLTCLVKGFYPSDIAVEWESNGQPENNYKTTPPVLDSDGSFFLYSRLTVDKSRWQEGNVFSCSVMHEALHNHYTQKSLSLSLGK
T2 sequence (constant, as listed by the source limits assumed): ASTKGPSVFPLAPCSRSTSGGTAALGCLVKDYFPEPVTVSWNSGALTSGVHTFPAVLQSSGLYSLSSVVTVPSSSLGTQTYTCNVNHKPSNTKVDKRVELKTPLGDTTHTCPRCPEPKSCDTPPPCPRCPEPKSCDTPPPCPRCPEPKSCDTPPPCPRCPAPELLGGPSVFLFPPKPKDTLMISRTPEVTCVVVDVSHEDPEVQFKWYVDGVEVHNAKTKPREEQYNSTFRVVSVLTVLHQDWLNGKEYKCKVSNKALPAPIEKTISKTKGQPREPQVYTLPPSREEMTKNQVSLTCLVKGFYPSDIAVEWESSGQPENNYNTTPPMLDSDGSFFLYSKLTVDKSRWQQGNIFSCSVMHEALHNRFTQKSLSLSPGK
T1 sequence (constant, as listed by the source limits assumed): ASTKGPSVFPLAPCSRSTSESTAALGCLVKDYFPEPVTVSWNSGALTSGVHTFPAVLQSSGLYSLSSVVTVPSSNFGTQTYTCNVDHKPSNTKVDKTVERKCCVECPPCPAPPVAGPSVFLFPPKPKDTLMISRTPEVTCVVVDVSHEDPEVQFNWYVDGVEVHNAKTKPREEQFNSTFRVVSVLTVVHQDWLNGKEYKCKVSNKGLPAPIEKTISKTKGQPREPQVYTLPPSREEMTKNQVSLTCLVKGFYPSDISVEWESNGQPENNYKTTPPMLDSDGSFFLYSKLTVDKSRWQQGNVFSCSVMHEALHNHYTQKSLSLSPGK

B1: MaI4-08-produced antibody (antibody, IgG1, V domains shown)
VH: EVQLQQSGPELVKPGTSVKMSCKASGYIFTSYILHWVKQKPGQGLEWIAYINPYNDGTKYKEKFKGKGTLTSDKSSSTAYMELSSLTSEDSAVYYCARSGGGYGNYAWFAYWGPGTLVTVST
VL: DIQMTQSPSSLSASLGERVSLTCRASQDIGSSLNWLQQEPDGTIKRLIYATSSLDSGVPKRFSGSRSGSDYSLTISSLESEDFVDYYCLQYASYPPTFGAGTKLELK
notes: Purified on protein G from hybridoma culture supernatant; POD-labelled for the Western blots
Turning to B1, in experiment [1], the “Measured value (apparent human IgG4 concentration)” value was 12.8 mg/dL. In addition, the “Measured value (apparent human IgG4 concentration)” value in experiment [2] was found to be 4.1 mg/dL. In experiment [3], this molecule showed a Kd of 0.406 nM, a koff of 0.000223 s⁻¹ and a kon of 549000 M⁻¹ s⁻¹.

By Kd is commonly meant the constant that tells how readily two partners part at equilibrium. Low readings indicate tighter binding, high ones weaker binding. Broadly, the koff is the first-order rate constant of dissociation. The term kon denotes the rate constant with which the complex forms. A low value points to slower complex formation.
